Data published in patent US20160136299A1 (Sanofi, published 2016).
Each block holds one binder with its values, some of them ahead of it.

Target: T1, Recombinant human FcγRI (human, UniProt P12314 16-292, limits assumed)
T1 construct: not shown: His tag (captured on anti-tetra-His antibody)
Test: Biacore SPR; FcγRI captured on anti-tetra-His, antibody 100 nM

T1 sequence (P12314 16-292 limits assumed): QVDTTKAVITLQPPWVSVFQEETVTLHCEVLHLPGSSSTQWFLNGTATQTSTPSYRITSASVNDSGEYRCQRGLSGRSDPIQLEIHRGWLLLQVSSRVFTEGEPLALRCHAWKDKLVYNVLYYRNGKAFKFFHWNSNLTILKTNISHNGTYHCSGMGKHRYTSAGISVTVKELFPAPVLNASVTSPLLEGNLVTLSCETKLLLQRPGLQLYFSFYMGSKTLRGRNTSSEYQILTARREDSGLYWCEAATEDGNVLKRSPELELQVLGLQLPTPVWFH

- binding result: binds
B1: Anti-αβTCR clone H66 S298N/Y300S antibody (antibody, human IgG1, kappa)
heavy: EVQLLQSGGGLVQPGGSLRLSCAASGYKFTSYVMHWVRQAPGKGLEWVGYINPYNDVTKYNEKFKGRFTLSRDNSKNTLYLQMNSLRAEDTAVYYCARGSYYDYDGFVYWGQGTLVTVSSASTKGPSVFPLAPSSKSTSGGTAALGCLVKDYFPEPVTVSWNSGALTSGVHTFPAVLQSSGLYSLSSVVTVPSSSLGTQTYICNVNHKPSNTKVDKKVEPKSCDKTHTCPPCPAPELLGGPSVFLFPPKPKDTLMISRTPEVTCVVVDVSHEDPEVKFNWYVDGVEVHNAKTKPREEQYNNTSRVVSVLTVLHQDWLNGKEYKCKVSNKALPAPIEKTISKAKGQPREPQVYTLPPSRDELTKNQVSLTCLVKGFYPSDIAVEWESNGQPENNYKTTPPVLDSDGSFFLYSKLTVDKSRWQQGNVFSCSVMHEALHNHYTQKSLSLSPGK
light: EIVLTQSPATLSLSPGERATLSCSATSSVSYMHWYQQKPGQAPRRLIYDTSKLASGVPARFSGSGSGTSYTLTISSLEPEDFAVYYCQQWSSNPLTFGGGTKVEIKRTVAAPSVFIFPPSDEQLKSGTASVVCLLNNFYPREAKVQWKVDNALQSGNSQESVTEQDSKDSTYSLSSTLTLSKADYEKHKVYACEVTHQGLSSPVTKSFNRGEC
notes: Full-length human IgG1; also called SY; S298N/Y300S H66

- binding result: binds
B2: Anti-αβTCR clone H66 N297Q/S298N/Y300S antibody (antibody, human IgG1, kappa)
heavy: EVQLLQSGGGLVQPGGSLRLSCAASGYKFTSYVMHWVRQAPGKGLEWVGYINPYNDVTKYNEKFKGRFTLSRDNSKNTLYLQMNSLRAEDTAVYYCARGSYYDYDGFVYWGQGTLVTVSSASTKGPSVFPLAPSSKSTSGGTAALGCLVKDYFPEPVTVSWNSGALTSGVHTFPAVLQSSGLYSLSSVVTVPSSSLGTQTYICNVNHKPSNTKVDKKVEPKSCDKTHTCPPCPAPELLGGPSVFLFPPKPKDTLMISRTPEVTCVVVDVSHEDPEVKFNWYVDGVEVHNAKTKPREEQYQNTSRVVSVLTVLHQDWLNGKEYKCKVSNKALPAPIEKTISKAKGQPREPQVYTLPPSRDELTKNQVSLTCLVKGFYPSDIAVEWESNGQPENNYKTTPPVLDSDGSFFLYSKLTVDKSRWQQGNVFSCSVMHEALHNHYTQKSLSLSPGK
light: B1 light
notes: Full-length human IgG1; also called NSY
